Where “and” joins values, the source holds several entries; their conditions need not be identical. Equal entries are not always repeated.

In assay [1] the target is trypsin-digested S protein (extracellular domain of the SARS-CoV-2 S protein cleaved at S1/S2) (SARS-CoV-2). The experiment in a line: cryo-EM structure.
For assay [2], the target named is trimeric extracellular domain of the S protein of SARS-CoV-2 (SARS-CoV-2) (UniProt P0DTC2). The experiment in a line: cryo-EM structure; S protein incubated with PD of ACE2; three conformations.

Take “peptidase domain (PD) of ACE2 (domain or fragment)”: in assay [1], the percent of particles in conformation 1 (one PD bound) was determined as 9.5%; the percent of particles in conformation 2 (two PD bound) stood at 84.5%; the percent of particles in conformation 3 (two PD bound) was 6%; the stoichiometry N (PD per S(p) trimer) is 1 and 2. Moreover, in assay [2], the percent of particles in conformation 2 (one PD bound) was determined as 24.4% and the percent of particles in conformation 3 (one PD bound) was found to be 67.7%.

The values are drawn from article PMC7972335.
